The data set deals with the molecule itself. Kind of data set: SEC; Superdex 200 Increase 10/300 GL; AAR 1.5 mg/mL; 50 mM Tris, 100 mM NaCl, 1 mM DTT, pH 7.4; without GdnHCl; oligomer of unstated size. Background: SEC sorts molecules by how far they enter the pores of the column.

The source of these data is PMC8187606, “Biophysical and structural studies reveal marginal stability of a crucial hydrocarbon biosynthetic enzyme acyl ACP reductase” (Scientific Reports, 2021).

B1: Acyl-ACP reductase (AAR) from Synechococcus elongatus PCC 7942, 6-His tagged recombinant (enzyme)
chain: MFGLIGHLTSLEQARDVSRRMGYDEYADQGLEFWSSAPPQIVDEITVTSATGKVIHGRYIESCFLPEMLAARRFKTATRKVLNAMSHAQKHGIDISALGGFTSIIFENFDLASLRQVRDTTLEFERFTTGNTHTAYVICRQVEAAAKTLGIDITQATVAVVGATGDIGSAVCRWLDLKLGVGDLILTARNQERLDNLQAELGRGKILPLEAALPEADFIVWVASMPQGVVIDPATLKQPCVLIDGGYPKNLGSKVQGEGIYVLNGGVVEHCFDIDWQIMSAAEMARPERQMFACFAEAMLLEFEGWHTNFSWGRNQITIEKMEAIGEASVRHGFQPLALAI
notes: Acyl-ACP reductase (AAR), Synechococcus elongatus PCC 7942, codon-optimized aar gene in pQE30; domains described as NTD 1-130, mid-domain 131-264, CTD 265-341; also called Acyl-acyl carrier protein reductase; source: E. coli M15 (pQE30AAR), purified from the soluble fraction (Ni-NTA, gel filtration)
In the case of B1, the binding result was “binds”.
